Laboratory results reported in US20070122406A1.
Several values for one entry are separate records, joined by “and”; a condition that tells them apart may be missing. Equal values may be shown once. Read-outs that look alike come from different tables or passages of the source.

Tests used:
[1] = target: recombinant human Ep-CAM/Fc (R&D Systems) (human) (UniProt P16422); experiment: SPR
[2] = target: recombinant human Ep-CAM/Fc (R&D Systems) (human) (UniProt P16422); experiment: SPR; remark: listed apart in the source
[3] = target: extracellular domain of Ep-CAM (DIGylated) (UniProt P16422); experiment: antigen binding
extracellular domain of Ep-CAM (DIGylated), sequence (P16422 24-265): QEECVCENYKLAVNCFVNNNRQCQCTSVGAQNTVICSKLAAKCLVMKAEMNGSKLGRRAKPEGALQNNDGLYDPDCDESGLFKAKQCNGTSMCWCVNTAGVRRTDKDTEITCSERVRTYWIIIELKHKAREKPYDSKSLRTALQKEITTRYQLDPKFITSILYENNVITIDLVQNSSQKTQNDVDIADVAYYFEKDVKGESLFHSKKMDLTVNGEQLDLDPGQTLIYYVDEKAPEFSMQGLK

FcgRI = experiment: SPR

recombinant human Ep-CAM/Fc (R&D Systems) (human), sequence (P16422 24-265): as above

Kd [1] [nM] | Kd [2] [nM] | EC50 [3] | Kd (FcgRI) [nM] | Substance
158 | 159 | 1.9E-07 ? and 2.5E-07 ? | – | Wild-type IgG1 Ep-CAM antibody (17-1A H0L0 variable regions, chimeric human IgG1)
– | – | – | 1.37 | H3.77_L3 S239D IgG1 (from UniProt P01857 1-330)
